{
  "source": "patent US20220306715A1",
  "about": "(SHATTUCK LABS, published 2022)",
  "biological_target": "IL-6",
  "sequence (P05231 30-212)": "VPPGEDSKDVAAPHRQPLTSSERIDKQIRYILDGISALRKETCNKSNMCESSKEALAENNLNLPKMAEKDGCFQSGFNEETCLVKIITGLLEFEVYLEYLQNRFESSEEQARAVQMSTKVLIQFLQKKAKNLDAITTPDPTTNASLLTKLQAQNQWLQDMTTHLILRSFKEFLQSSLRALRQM",
  "assay": "cell-based or functional assay",
  "data": [
    {"binder": "human IL-6R-Fc-IL-35 chimeric protein (Fc fusion) chain 1: ELLDPCGYISPESPVVQLHSNFTAVCVLKEKCMDYFHVNANYIVWKTNHFTIPKEQYTIINRTASSVTFTDIASLNIQLTCNILTFGQLEQNVYGITIISGLPPEKPKNLSCIVNEGKKMRCEWDGGRETHLETNFTLKSEWATHKFADCKAKRDTPTSCTVDYSTVYFVNIEVWVEAENALGKVTSDHINFDPVYKVKPNPPHNLSVINSEELSSILKLTWTNPSIKSVIILKYNIQYRTKDASTWSQIPPEDTASTRSSFTVQDLKPFTEYVFRIRCMKEDGKGYWSDWSEEASGITYEDRPSKAPSFWYKIDPSHTQGYRTVQLVWKTLPPFEANGKILDYEVTLTRWKSHLQNYTVNATKLTVNLTNDRYLATLTVRNLVGKSDAAVLTIPACDFQATHPVMDLKAFPKDNMLWVEWTTPRESVKKYILEWCVLSDKAPCITDWQQEDGTVHRTYLRGNLAESKCYLITVTPVYADGPGSPESIKAYLKQAPPSKGPTVRTKKVGKNEAVLEWDQLPVDVQNGFIRNYTIFYRTIIGNETAVNVDSSHTEYTLSSLTSDTLYMVRMAAYTDEGGKDGPEFTFTTPKFAQGEIEGSGSRKGGKRGSKYGPPCPPCPAPEFLGGPSVFLFPPKPKDQLMISRTPEVTCVVVDVSQEDPEVQFNWYVDGVEVHNAKTKPREEQFNSTYRVVSVLTVLHQDWLSGKEYKCKVSSKGLPSSIEKTISNATGQPREPQVYTLPPSQEEMTKNQVSLTCLVKGFYPSDIAVEWESNGQPENNYKTTPPVLDSDGSFFLYSRLTVDKSRWQEGNVFSCSVLHEALHNHYTQKSLSLSLGKDEGGEDGSGSRNLPVATPDPGMFPCLHHSQNLLRAVSNMLQKARQTLEFYPCTSEEIDHEDITKDKTSTVEACLPLELTKNESCLNSRETSFITNGSCLASRKTSFMMALCLSSIYEDLKMYQVEFKTMNAKLLMDPKRQIFLDQNMLAVIDELMQALNFNSETVPQKSSLEEPDFYKTKIKLCILLHAFRIRAVTIDRVMSYLNAS chain 2: LAPRRCPAQEVARGVLTSLPGDSVTLTCPGVEPEDNATVHWVLRKPAAGSHPSRWAGMGRRLLLRSVQLHDSGNYSCYRAGRPAGTVHLLVDVPPEEPQLSCFRKSPLSNVVCEWGPRSTPSLTTKAVLLVRKFQNSPAEDFQEPCQYSQESQKFSCQLAVPEGDSSFYIVSMCVASSVGSKFSKTQTFQGCGILQPDPPANITVTAVARNPRWLSVTWQDPHSWNSSFYRLRFELRYRAERSKTFTTWMVKDLQHHCVIHDAWSGLRHVVQLRAQEEFGQGEWSEWSPEAMGTPWTESRSPPAENEVSTPMQALTTNKDDDNILFRDSANATSLPVQDSSSVPLPGSGSDEGGEDGSKYGPPCPPCPAPEFLGGPSVFLFPPKPKDQLMISRTPEVTCVVVDVSQEDPEVQFNWYVDGVEVHNAKTKPREEQFNSTYRVVSVLTVLHQDWLSGKEYKCKVSSKGLPSSIEKTISNATGQPREPQVYTLPPSQEEMTKNQVSLTCLVKGFYPSDIAVEWESNGQPENNYKTTPPVLDSDGSFFLYSRLTVDKSRWQEGNVFSCSVLHEALHNHYTQKSLSLSLGKRKGGKRGSGSRKGPPAALTLPRVQCRASRYPIAVDCSWTLPPAPNSTSPVSFIATYRLGMAARGHSWPCLQQTPTSTSCTITDVQLFSMAPYVLNVTAVHPWGSSSSFVPFITEHIIKPDPPEGVRLSPLAERQLQVQWEPPGSWPFPEIFSLKYWIRYKRQGAARFHRVGPIEATSFILRAVRPRARYYVQVAAQDLTDYGELSDWSLPATATMSLGK", "values": [
      {"measurement": "EC50 of induction of apoptosis in IL-6 dependent DS-1 cells cultured 24 hours with IL-6 (caspase 3/7 luciferase assay)", "result": 14.1, "unit": "nM"}
    ]}
  ]
}
